Non-standard residues stand in square brackets, D forms with d. No end group written: not given here. *: point of attachment. APBA‑IA = cysteine S-alkylated with APBA-IA: S-[2-oxo-2-({3-[4-acetyl-3-boronophenoxy]propyl}amino)ethyl]-L-cysteine (Cm), CC(=O)c1ccc(OCCCNC(=O)C*)cc1B(O)O; FAM = 5(6)-carboxyfluorescein, amide on Dap side-chain amine; Dap = NC[C@H](N)C(=O)O
Target: T1, human serum albumin (human, UniProt P02768 25-609)
T1 construct: Reagent protein; also called HSA
Test: fluorescence anisotropy, 500 nM peptide with varied protein concentrations in PBS pH 7.4
Experimental: FIGS. 16A-16B show further evaluation of the protein-enhanced bacterial staining by KAM5. (A) Flow cytometry comparison of HSA and BSA in enhancing KAM5 binding to S. aureus. (B) Assessing protein binding of KAM5 using fluorescence anisotropy, for which various concentrations of BSA or HSA were delivered to a 96-well plate (Corning 3603) in PBS (pH 7.4). Peptide was added at a final concentration of 500 nM and incubated for 1 hour. Anisotropy values were measured (Ex: 495 nm, Em: 532 nm) and plotted as an average of three trials with standard deviations. Fluorescein was used as a negative control. The results clearly show binding of KAM5 to these serum proteins.
The cell staining ability of KAM5 was also evaluated via fluorescence microscopy with a TAMRA labeled peptide. […] On the contrary, the BSA addition elicited stronger fluorescence staining of the bacteria, consistent with the flow cytometry results (FIG. 2D). […] To better understand this phenomenon, KAM5 was measured binding to these serum proteins via a fluorescence anisotropy experiment (FIGS. 16A-16B). KAM5 did show binding to both BSA and HAS at high protein concentrations, which is perhaps not surprising given these proteins display a large number of surface lysine residues.

T1 sequence (P02768 25-609 limits assumed): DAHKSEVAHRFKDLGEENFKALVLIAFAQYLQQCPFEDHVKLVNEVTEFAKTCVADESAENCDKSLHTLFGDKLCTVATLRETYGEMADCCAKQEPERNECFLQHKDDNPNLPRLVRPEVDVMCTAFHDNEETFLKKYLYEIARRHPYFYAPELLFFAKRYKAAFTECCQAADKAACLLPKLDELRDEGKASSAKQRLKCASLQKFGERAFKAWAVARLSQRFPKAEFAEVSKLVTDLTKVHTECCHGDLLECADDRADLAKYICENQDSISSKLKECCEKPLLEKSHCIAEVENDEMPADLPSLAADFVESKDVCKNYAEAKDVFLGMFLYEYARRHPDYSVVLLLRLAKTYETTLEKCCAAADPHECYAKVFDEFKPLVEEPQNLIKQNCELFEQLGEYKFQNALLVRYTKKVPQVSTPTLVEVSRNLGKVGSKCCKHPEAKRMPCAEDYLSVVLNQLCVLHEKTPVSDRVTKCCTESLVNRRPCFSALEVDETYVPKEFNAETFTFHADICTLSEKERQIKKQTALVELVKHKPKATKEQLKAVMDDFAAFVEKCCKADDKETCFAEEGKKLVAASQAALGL

AC(APBA‑IA)VSPRSHEC(APBA‑IA)GGG[Dap](FAM)-NH2 [KAM5 (fluorescein/FAM labeled, APBA-IA modified): ACmVSPRSHECmGGGDap*]: binds.

Source: patent US20210198657A1 (TRUSTEES OF BOSTON COLLEGE, published 2021)
